T1: recombinant soluble human TREM2 protein (human TREM2 ECD-FlagHis) (human, UniProt Q9NZC2 19-174)
T1 sequence: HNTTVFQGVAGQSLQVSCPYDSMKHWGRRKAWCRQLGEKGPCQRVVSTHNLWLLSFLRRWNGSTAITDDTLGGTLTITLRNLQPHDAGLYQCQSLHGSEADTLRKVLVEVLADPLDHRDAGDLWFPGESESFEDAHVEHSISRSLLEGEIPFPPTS

T2: human TREM2 on cells (human, UniProt Q9NZC2 19-230)
T2 sequence: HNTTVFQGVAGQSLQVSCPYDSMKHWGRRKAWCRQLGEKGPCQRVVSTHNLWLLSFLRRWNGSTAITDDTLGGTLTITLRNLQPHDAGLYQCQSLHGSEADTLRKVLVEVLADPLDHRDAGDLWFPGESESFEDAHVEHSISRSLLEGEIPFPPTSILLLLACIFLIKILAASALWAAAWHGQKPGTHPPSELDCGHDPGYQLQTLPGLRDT

T3: soluble human TREM2 protein (TREM2 ECD-huIgG1 Fc fusion protein) (human, UniProt Q9NZC2 19-174, biotinylated)
T3 construct: also called biotinylated soluble human TREM2 protein
T3 sequence: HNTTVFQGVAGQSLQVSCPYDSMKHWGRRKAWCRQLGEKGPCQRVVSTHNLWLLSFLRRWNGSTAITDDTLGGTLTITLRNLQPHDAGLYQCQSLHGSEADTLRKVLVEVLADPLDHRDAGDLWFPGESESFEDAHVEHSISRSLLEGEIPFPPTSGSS

T4: recombinant soluble cynomolgus TREM2 protein (cynomolgus TREM2 extracellular domain coupled to a Flag/His tag) (cynomolgus, UniProt A0A2K5UY34 49-204)
T4 construct: extracellular domain; also called Cyno TREM2
T4 sequence: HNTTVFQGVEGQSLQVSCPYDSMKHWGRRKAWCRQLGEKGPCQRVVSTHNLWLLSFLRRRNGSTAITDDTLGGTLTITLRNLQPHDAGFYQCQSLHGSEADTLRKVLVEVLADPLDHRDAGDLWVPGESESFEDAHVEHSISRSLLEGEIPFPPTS


Legend:
[1] = target: T1, recombinant soluble human TREM2 protein …; assay: Octet BLI binning; competitor: load Ab 26F2
How it was run: (§1)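 Sixteen hybridoma-derived anti-TREM2 antibodies were cross-tested pairwise as load and sandwich antibodies on anti-human Fc biosensors at 25° C. Assay buffer held 10 mM Tris pH 7.6, 150 mM NaCl, 1 mM CaCl₂, 0.1% Triton X-100 and 1 mg/mL BSA.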

human TREM2 on cells [2] = target: T2, human TREM2 on cells; assay: cell-based or functional assay
[3] = target: T1, recombinant soluble human TREM2 protein …; assay: Octet BLI binning; competitor: load Ab 25F12
How it was run: as §1

[4] = target: T3, soluble human TREM2 protein (TREM2 …); assay: ELISA, hybridoma supernatant on captured biotinylated TREM2 ECD-Fc
[5] = target: T1, recombinant soluble human TREM2 protein …; assay: Octet BLI binning; competitor: load Ab 4G10
Method: (§2) Each of sixteen different anti-TREM2 antibodies produced from hybridomas were quantitated and loaded onto one of the anti-human Fc sensors at 5 μg/mL for 2 minutes (“Load Antibody”). The sensor was then blocked with 100 μg/mL of an irrelevant human IgG2 antibody for 5 minutes. […] Next, each of the sixteen different anti-TREM2 antibodies (“Sandwich Antibody”) was added to the sensor at 5 μg/mL and allowed to bind for 5 minutes. All assay buffers contained 10 mM Tris (pH 7.6), 0.1% Triton X-100, 150 mM NaCl, 1 mM CaCl₂, and 1 mg/mL BSA. The assay was conducted at 25° C. Experimental kinetic results were fit to a 1:1 binding model.
(§3) However, if addition of the sandwich antibody produces a binding event, then the sandwich antibody binds to a different epitope on human TREM2 than the load antibody and the two antibodies are categorized into different epitope bins.

[6] = target: T1, recombinant soluble human TREM2 protein …; assay: Octet BLI binning; competitor: load Ab 4C5
Method: as §2, §3

[7] = target: T1, recombinant soluble human TREM2 protein …; assay: Octet BLI binning; competitor: load Ab 24G6
How it was run: as §1

[8] = target: T1, recombinant soluble human TREM2 protein …; assay: Octet BLI binning; competitor: load Ab 32E3
How it was run: as §1

[9] = target: T1, recombinant soluble human TREM2 protein …; assay: Octet BLI binning; competitor: load Ab 10E3
How it was run: as §1

[10] = target: T4, recombinant soluble cynomolgus TREM2 …; assay: Octet BLI, antibody on anti-human Fc sensor, 25 C
Method: (§4) To quantitate the binding affinity of agonist antibodies for human TREM2, association and dissociation rate constants as well as the equilibrium dissociation constant were determined using anti-human Fc (Kinetic) sensors on an Octet® HTX instrument (Pall ForteBio). Agonist anti-TREM2 antibodies were made up in DMEM null media, 250 μL at 10 μg/mL. The, 250 uL of assay buffer (10 mM Tris (pH 7.6), 0.1% Triton X-100, 150 mM NaCl, 1mM CaCl₂, and 1 mg/mL BSA) was added to the antibody solutions to a final volume of 500 μL and final antibody concentration of 5 μg/mL. The anti-human Fc sensor was pre-incubated in 200 μL of the assay buffer for a minimum of 10 minutes. The sensor was then regenerated for 5 seconds in 10 mM glycine pH 1.5. Test agonist anti-TREM2 antibodies were loaded onto the sensor for 2 minutes, and baseline measurements were taken for 2 minutes. […] The recombinant TREM2 proteins were allowed to associate with the antibody-loaded sensor for 10 minutes, and then dissociation was measured for 10 minutes. The assay was conducted at 25° C. Experimental kinetic results were globally fit to a 1:1 binding model in order to determine the association and dissociation rate constants as well as the equilibrium dissociation constant.

[11] = target: T1, recombinant soluble human TREM2 protein …; assay: Octet BLI, antibody on anti-human Fc sensor, 25 C
Method: as §4

human TREM2 on cells [12] = target: T2, human TREM2 on cells; assay: cell-based or functional assay; remark: listed apart in the source

Binder | sandwich binding signal [1] | pSyk EC50 (human TREM2 on cells [2]) [nM] | sandwich binding signal [3] | OD 450 [4] [OD450] | sandwich binding signal [5] | sandwich binding signal [6] | sandwich binding signal [7] | sandwich binding signal [8] | sandwich binding signal [9] | Kd [10] [nM] | Kd [11] [nM] | Emax (% maximum activation compared to RnD antibody) (human TREM2 on cells [12]) [%] | pSyk EC50, differentiated THP-1 cells (human TREM2 on cells [12]) [nM]
4C5 (antibody, V domains shown, human IgG2 from hybridoma) VH: EVQLVQSGAEVKKPGESLKISCKGSGHSFTNYWIAWVRQMPGKGLEWMGIIYPGDSDTRYSPSFQGQVTISADKSISTAYLQWSSLKASDTAVYFCARQRTFYYDSSGYFDYWGQGTLVTVSS VL: DIQMTQSPSSVSASVGDRVTITCRASQGISNWLAWYQQKPGKAPKLLIYAASSLQVGVPLRFSGSGSGTDFTLTISSLQPEDFATYYCQQADSFPRNFGQGTKLEIK | 0.31 | 0.18 | 0.265 | 3.62 | -0.011 | -0.014 | 0.268 | -0.01 | -0.005 | 3.6 | 3.1 | 265 | 1.72
4G10 (antibody, human IgG2, V domains shown, human IgG2 from hybridoma) VH: EVQLVQSGAEVKKPGESLKISCKGSGYSFPSYWIAWVRQMPGKGLEWMGIIYPGDSDTRYSPSFQGQVTISADKSISTAFLKWSSLKASDTAMYFCARQGIEVTGTGGLDVWGQGTTVTVSS VL: DIQMTQSPSSLSASVGDRVTITCRASQGIRNDLGWYQQKPGNAPKRLIYAASSLPSGVPSRFSGSGSGPEFTLTISSLQPEDFATYYCLQHNSYPWTFGQGTKVEIT | 0.18 | 0.47 | 0.199 | 3.17 | -0.026 | -0.018 | 0.184 | -0.029 | -0.019 | 1.7 | 3.3 | 236 | 0.579
